Literature values in paper PMC6047922.

Molecular target: ttRNH* Icore (Thermus thermophilus) (UniProt Q72IE1)
Assay: analytical ultracentrifugation

For ttRNH* Icore (from UniProt Q72IE1), the Kd is listed as 150 µM.
